# Laboratory results taken from patent publication US20070196376A1 (AstraZeneca / MedImmune, published 2007).
# B1: mAb 7.159.2 (antibody, V domains shown)
# VH: QVQLVQSGAEVKKPGASVKVSCKASGYTFTSYDINWVRQATGQGLEWMGWMNPNSGNTGYAQKFQGRVTMTRNTSISTAYMELSSLRSEDTAVYYCARDPYYYYYGMDVWGQGTTVTVSS
# VL: QSVLTQPPSVSAAPGQKVTISCSGSSSNIENNHVSWYQQLPGTAPKLLIYDNNKRPSGIPDRFSGSKSGTSATLGITGLQTGDEADYYCETWDTSLSAGRVFGGGTKLTVLG
# notes: Fully human XenoMouse hybridoma mAb, lambda light chain (V1-19/JL2); Sister clones 7.159.1 and 7.159.2 are said to be identical; also called 7.159.1; 7_159_1
# B2: mAb 7.34.1 (antibody, V domains shown)
# VH: QVQLQESGPGLVKPSETLSLTCTVSGGSISSYYWSWIRQPPGRGLEWIGYFFYSGYTNYNPSLKSRVTMSVDTSKNQFSLKLSSVTAADTAVYYCACITGTTKGGMDVWGQGATVTVSS
# VL: QSVLTQAPSVSGAPGQRVTISCTGRSSNIGAGYDVHWYQQFPGTAPKLLIYGNSNRPSGVPDRFSGSKSGTSASLAITGLQAEDEADYYCQSYDSSLSGSVFGGGTKLTVLG
# notes: Fully human XenoMouse hybridoma mAb, lambda light chain (V1-13/JL2); also called ATCC PTA-7423
# Assays:
# [1] = biological target: T1, human insulin-like growth factor-II (IGF-II) (human, UniProt P01344 25-91); assay: Biacore low-resolution analysis, IGF-II
# T1 construct: also called IGF2; IGF-2
# Description: (§1) The label-free surface plasmon resonance (SPR), or Biacore, was utilized to measure the antibody affinity to the antigen. For this purpose, a high-density goat anti-human antibody surface over a CM5 Biacore chip was prepared using routine amine coupling. All the mAbs were diluted to approximately 20 μg/ml in HBS-P running buffer containing 100 gg/ml BSA. Each mAb was captured on a separate surface using a 30-second contact time at 10 μL/min., and a 5-minute wash for stabilization of the mAb baseline.
# (§2) The samples were prepared in the HBS-P running buffer described above. […] Drift-corrected binding data for the 34 mAbs was prepared by subtracting the signal from a control flow cell and subtracting the baseline drift of a buffer injected just prior to each antigen injection. […] A mass transport coefficient was used in fitting the data.
# [2] = biological target: T1, human insulin-like growth factor-II …; assay: Biacore low-resolution screen, mAb captured, IGF-II injected; off-rate held constant in the fit; off-rate marked with asterisk; low-resolution screen, 5-minute dissociation
# Description: as §1, §2
# [3] = biological target: T2, human insulin-like growth factor-I (IGF-I) (human, UniProt P05019 49-118); assay: Biacore low-resolution analysis, IGF-I; low-resolution screen, not high-resolution (294.0 pM)
# T2 construct: also called IGF1; IGF-1
# Description: as §1, §2
# [4] = biological target: T1, human insulin-like growth factor-II …; assay: Biacore high-resolution, mAb captured, IGF-II injected over a range of concentrations
# [5] = biological target: T2, human insulin-like growth factor-I …; assay: Biacore high-resolution, mAb captured, IGF-I injected over a range of concentrations
# [6] = biological target: T1, human insulin-like growth factor-II …; assay: cell-based or functional assay
# [7] = biological target: T2, human insulin-like growth factor-I …; assay: cell-based or functional assay
# [8] = biological target: T1, human insulin-like growth factor-II …; assay: Biacore low-resolution screen, mAb captured, IGF-II injected
# Description: as §1, §2
# [9] = biological target: T1, human insulin-like growth factor-II …; assay: cell-based or functional assay; remark: listed apart in the source
# [10] = biological target: T1, human insulin-like growth factor-II …; assay: cell-based or functional assay; remark: listed apart in the source
# [11] = biological target: T2, human insulin-like growth factor-I …; assay: cell-based or functional assay; remark: listed apart in the source
# [12] = biological target: T2, human insulin-like growth factor-I …; assay: Biacore low-resolution screen, mAb captured, IGF-I injected
# Description: as §1, §2
# [13] = biological target: T1, human insulin-like growth factor-II …; assay: cell-based or functional assay; remark: listed apart in the source
# [14] = biological target: T2, human insulin-like growth factor-I …; assay: cell-based or functional assay; remark: listed apart in the source
# mouse IGF-II = mouse IGF-II (mouse, UniProt P09535 25-91); assay: cell-based or functional assay
# mouse IGF-I = mouse IGF-I (mouse, UniProt P05017 49-118); assay: cell-based or functional assay
# [15] = biological target: T2, human insulin-like growth factor-I …; assay: Biacore high-resolution, mAb captured, IGF-I injected over a range of concentrations; second value, row without label
# [16] = biological target: T2, human insulin-like growth factor-I …; assay: Biacore low-resolution analysis, IGF-I
# Description: as §1, §2
# [17] = biological target: T1, human insulin-like growth factor-II …; assay: Biacore high-resolution, mAb captured, IGF-II injected over a range of concentrations; second value, row without label
Kd [1],Kd [4],Kd [5],"% MAX Activation, mean (n = 2), IGF-II pTYR of hIGF-IR in NIH3T3 cells [6]","EC50 (nM), mean (n = 2), IGF-II pTYR of hIGF-IR in NIH3T3 cells [6]","% MAX Activation, mean (n = 2), IGF-I pTYR of hIGF-IR in NIH3T3 cells [7]","EC50 (nM), mean (n = 2), IGF-I pTYR of hIGF-IR in NIH3T3 cells [7]",Kd [8],kon [8],"EC50 (nM), n = 1, IGF-II Proliferation, BxPC3 cells [9]","EC50 (nM), n = 2, IGF-II Proliferation, BxPC3 cells [9]","Max % Inhibition (133.3 nM), n = 2, IGF-II Proliferation, BxPC3 cells [9]","Max % Inhibition (333.3 nM), n = 1, IGF-II Proliferation, BxPC3 cells [9]","EC50 (nM), n = 1, IGF-II pTYR, BxPC3 cells [10]","EC50 (nM), n = 2, IGF-II pTYR, BxPC3 cells [10]","Max % Inhibition (133.3 nM), n = 2, IGF-II pTYR, BxPC3 cells [10]","Max % Inhibition (333.3 nM), n = 1, IGF-II pTYR, BxPC3 cells [10]","EC50 (nM), n = 1, IGF-I pTYR, BxPC3 cells [11]","EC50 (nM), n = 2, IGF-I pTYR, BxPC3 cells [11]","Max % Inhibition (333.3 nM), n = 1, IGF-I pTYR, BxPC3 cells [11]",also measured,Binder
0.0029 nM,0.0019 nM,0.294 nM,28.6%,3.1 nM,16.5%,7.4 nM,< 0.00286 nM,3.5e+06 M⁻¹ s⁻¹,0.8 nM,0.9 nM,118%,120%,1.6 nM,1.7 nM,91.2%,100%,3.3 nM,1.6 nM,100%,"koff [2]: < 1e-05 s⁻¹; Kd [3]: 0.216 nM; Max % Inhibition (333.3 nM), n = 2, IGF-I pTYR, BxPC3 cells [11]: 100%; Kd [12]: 0.216 nM; koff [12]: 0.00093 s⁻¹; kon [12]: 4.3e+06 M⁻¹ s⁻¹; % Inhibition, mean (n = 2), IGF-II Proliferation Assay, NIH3T3/hIGF-IR cells [13]: 99.3%; EC50 (nM), mean (n = 2), IGF-II Proliferation Assay, NIH3T3/hIGF-IR cells [13]: 7.6 nM; % Inhibition, mean (n = 3), IGF-I Proliferation Assay, NIH3T3/hIGF-IR cells [14]: 77%; EC50 (nM), mean (n = 3), IGF-I Proliferation Assay, NIH3T3/hIGF-IR cells [14]: 24.1 nM; Mouse IGF-II EC50 (nM), n = 1, phosphorylation of hIGF-IR in NIH3T3 cells (mouse IGF-II): 3.1 nM; Mouse IGF-II EC50 (nM), n = 2, phosphorylation of hIGF-IR in NIH3T3 cells (mouse IGF-II): 5 nM; Mouse IGF-I EC50 (nM), n = 1, phosphorylation of hIGF-IR in NIH3T3 cells (mouse IGF-I): 2.8 nM; Mouse IGF-I EC50 (nM), n = 2, phosphorylation of hIGF-IR in NIH3T3 cells (mouse IGF-I): 5.7 nM",B1
0.06 nM,0.164 nM,0.436 nM,21.5%,2.5 nM,14.2%,9.4 nM,0.06 nM,3e+06 M⁻¹ s⁻¹,0.5 nM,6.7 nM,109%,117%,2 nM,1.9 nM,89.7%,100%,5.9 nM,3.8 nM,100%,"Kd [15]: 0.421 nM; Kd [16]: 0.615 nM; koff [8]: 0.00018 s⁻¹; Max % Inhibition (333.3 nM), n = 2, IGF-I pTYR, BxPC3 cells [11]: 98.5%; Kd [12]: 0.615 nM; koff [12]: 0.0032 s⁻¹; kon [12]: 5.2e+06 M⁻¹ s⁻¹; Kd [17]: 0.162 nM; % Inhibition, mean (n = 2), IGF-II Proliferation Assay, NIH3T3/hIGF-IR cells [13]: 73.6%; EC50 (nM), mean (n = 2), IGF-II Proliferation Assay, NIH3T3/hIGF-IR cells [13]: 16.3 nM; % Inhibition, mean (n = 3), IGF-I Proliferation Assay, NIH3T3/hIGF-IR cells [14]: 72.6%; EC50 (nM), mean (n = 3), IGF-I Proliferation Assay, NIH3T3/hIGF-IR cells [14]: 23.4 nM; Mouse IGF-II EC50 (nM), n = 1, phosphorylation of hIGF-IR in NIH3T3 cells (mouse IGF-II): 4 nM; Mouse IGF-II EC50 (nM), n = 2, phosphorylation of hIGF-IR in NIH3T3 cells (mouse IGF-II): 9.7 nM; Mouse IGF-I EC50 (nM), n = 1, phosphorylation of hIGF-IR in NIH3T3 cells (mouse IGF-I): 6 nM; Mouse IGF-I EC50 (nM), n = 2, phosphorylation of hIGF-IR in NIH3T3 cells (mouse IGF-I): 10.2 nM",B2
